Each block holds one binder with its values, some of them ahead of it.
What was measured:
[1] = biological target: T1, human Bcl-2 mutant mI-3 (alanine for the glycine in the WGR sequence of domain I) (human, UniProt P10415 1-239); assay: immunoprecipitation of radiolabeled FL5.12 and 2B4 stable transfectants (FIG. 18)
T1 construct: also called mI 3-4; mI3-4
Description: (§1) Prior to metabolic labeling, cells were washed once in prewarmed, serum-free, methionine-free Dulbecco's medium. Cells were resuspended at 3-5×10⁶ cells/ml in methionine-free Dulbecco's medium supplemented with 10% dialyzed FCS and either 5% complete medium or 5% WEHI 3B supernatant. Metabolic labeling was performed with 40 μCi/ml of ³⁵S)methionine, (³⁵S)cysteine for 9-12 hours before lysis. All steps of the immunoprecipitation were carried out on ice or in the cold room. Cells were washed twice with cold phosphate-buffered saline and lysed in an NP-40 isotonic lysis buffer with freshly added protease inhibitors (142.5 mM KCl, 5 mM MgCl₂, 10 mM HEPES pH:7.2, 1 mM EGTA, 0.2% NP-40, 0.2 mM phenylmethylsulfonyl fluoride, 0.1% Aprotinin, 0.7 μg/ml Pepstatin and 1 μg/ml Leupeptin) by nutation for 30′. Nuclei and unlysed cellular debris were removed by centrifugation at […] for 10′. Lysates were precleared with 10% v/v Protein A-Sepharose (Prot.A-S) for 30′ which was removed by centrifugation at 400×g for 2′. In experiments, the lysates were also mixed with 10× excess cold cells lysates for 15′ prior to the addition of the antibody. Specific antibodies were added for 90′ and immunoprecipitates were captured with 10% v/v Prot.A-S for 60′. […]

[2] = biological target: T2, human Bcl-2 mutant mI-4 (glutamic acid for the glycine in the WGR sequence of domain I) (human, UniProt P10415 1-239); assay: as above
T2 construct: also called mI 4-7; mI4-7
Description: as §1

wild type human Bcl-2 = biological target: T3, wild type human Bcl-2 (human, UniProt P10415 1-239); assay: immunoprecipitation of human Bcl-2 from double transfected FL5.12 cells, Western blot with anti-mouse Bcl-2 antibody (FIG. 21)
T3 construct: also called hBcl-2; human Bcl-2 wild-type
Excerpt: (§2) Immunoprecipitates were washed (unless indicated otherwise) once in lysis buffer followed by a wash in lysis buffer without NP-40. Immunoprecipitates were solubilized with SDS-PAGE sample buffer and electrophoresed through 12.5% SDS-polyacrylamide gels. Gels containing (³⁵ S)methionine labeled proteins were fixed with 10% glacial acetic acid and 30% methanol overnight, enhanced by impregnating with a commercial fluorography enhancing solution (Enhance by DuPont) for 60′, and […] in water for 30′. Gels were then dried and autoradiography performed at−70° C.
(§3) For immunoblots, proteins were electrotransferred overnight at 4° C. on nitrocellulose membranes. Filters were blocked for 2 hours with phosphate-buffered saline containing 3% non-fat milk. All additional immunostaining steps were performed in phosphate-buffered saline with 0.05% Tween-20 (PBS-Tween) at room temperature. Filters were incubated with primary antibody for 2 hours. Species specific biotinylated secondary antibodies (1:300) were also reacted for 2 hours. Immunoblots were reacted with horseradish-peroxidase-Streptavidin (1:1000) for 1 hour. Filters were washed in PBX-Tween 4 times for 5′ between each step and were developed with […] (BioRad) enhanced with nickel chloride (0.03%).
(§4) In FIG. 21 cells are created that bear two expression constructs. The Dα15 cell line is an FL5.12 bearing human Bcl-2 wild-type and mouse Bcl-2 wild-type vector. The DN2 bears a control Neomycin resistant expression vector and mouse Bcl-2 wild-type vector. The clone DSM4-5 contains mutant Bcl-2 of domain I and a mouse Bcl-2 wild-type whereas the DSM-4 contains another Bcl-2 mutant of human origin with mouse Bcl-2 wild-type. […] In FIG. 21B we see a primary immunoprecipitation of either wild-type human Bcl-2 or the mutated human Bcl-2 in which the 3-4 and 4-7 mutants have no associated Bax. Those immunoprecipitations are then developed by Western blot analysis with an anti-mouse Bcl-2 antibody. Both the wild-type human Bcl-2 as well as the two mutants mI 3-4 and mI 4-7 both associate with the wild-type mouse Bcl-2.

[3] = biological target: T1, human Bcl-2 mutant mI-3 (alanine for …); assay: as above
Excerpt: as §2, §3, §4

[4] = biological target: T2, human Bcl-2 mutant mI-4 (glutamic acid …); assay: as above
Excerpt: as §2, §3, §4

binding result [1]: no binding | binding result [2]: no binding
B1: murine Bax (endogenous p21 of FL5.12 cells, Bax alpha) (other)
chain: MDGSGEQLGSGGPTSSEQIMKTGAFLLQGFIQDRAGRMAGETPELTLEQPPQDASTKKLSECLRRIGDELDSNMELQRMIADVDRDSPREVFFRVAADMFADGNFNTGRVVALFYFASKLVLKALCTKVPELIRTIMGWTLDFLRERLLGWIQDQGGWEGLLSYFGTPTWQTVTIFVAGVLTASLTIWKKMG
notes: also called murine p21 protein; mouse p21

binding result (wild type human Bcl-2): binds | binding result [3]: binds | binding result [4]: binds
B2: murine Bcl-2 (wild type) (other, UniProt P10417 1-236, looked up)
chain: MAQAGRTGYDNREIVMKYIHYKLSQRGYEWDAGDADAAPLGAAPTPGIFSFQPESNPMPAVHRDMAARTSPLRPLVATAGPALSPVPPVVHLTLRRAGDDFSRRYRRDFAEMSSQLHLTPFTARGRFATVVEELFRDGVNWGRIVAFFEFGGVMCVESVNREMSPLVDNIALWMTEYLNRHLHTWIQDNGGWDAFVELYGPSMRPLFDFSWLSLKTLLSLALVGACITLGAYLGHK
notes: also called endogenous murine Bcl-2; mouse Bcl-2 wild-type

— patent US20030096367A1 (WASHINGTON UNIVERSITY, published 2003)
